Values joined by “and” are separate entries in the source; they are usually repeats but may differ in a detail not shown here. Identical values can stand only once.
Assays:
Format in all cases: in vivo
F1 hybrid maize plants [1] = assay: trait efficacy field trial, 2,4-D pressure screening, F1 hybrid; settings: crop injury percentage; for 4X 2,4-D CIPV4 / 4X 2,4-D CIPV8: 4 lb ae/acre at VE-V2, V4, V8; for 8X 2,4-D CIPV4 / 8X 2,4-D CIPV8: 8 lb ae/acre at VE-V2, V4, V8; for 16X 2,4-D CIPV4 / 16X 2,4-D CIPV8: 16 lb ae/acre at VE-V2, V4, V8
Experimental: Separate trait efficacy field trials for quizalofop-P and 2,4-D pressure screening were conducted at one location each with F1 hybrid transgenic plants produced by crossing an inbred plant containing maize event MON89034 with an R1 plant containing MON-HT1, MON-HT2, MON-HT8, MON-HT9, and MON-HT10 with and without operably linked CTP sequences. Transgenic F1 hybrid plants containing maize events NK603×MON89034 were used for comparison as a control.
Three herbicide treatments were used in the trait efficacy field trial for 2,4-D tolerance: (1) 2,4-D amine at 4 lb ac/acre (4×) plus 0.25% v/v NIS applied to VE-V2 followed by V4 followed by V8; (2) 2,4-D amine at 8 lb ac/acre (8×) plus 0.25% v/v NIS applied to VE-V2 followed by V4followed by V8 maize; or (3) 2,4-D amine at 16 lb ac/acre (16×) plus 0.25% v/v NIS applied to VE-V2 followed by V4 followed by V8. Plots were visually rated as above.
The injury rating for the control plants after all 2,4-D applications ranged from 80% to 96.25%. At the highest rate of 2,4-D (16×) applied through V8, the plants containing MON-HT1 or MON-HT2 operably linked to any of the three CTPs (A, B, or C) had better tolerance than plants containing MON-HT1 or MON-HT2 not operably linked to a CTP. Plants containing MON-HT1, MON-HT2, or MON-HT8 with or without an operably linked CTP had better tolerance to 2,4-D at all applications tested compared to plants containing either MON-HT9 or MON-HT10 with an operably linked ‘A’ CTP. Over the range of 2,4-D applications the relative ranking of tolerance was: plants containing MON-HT1 had better tolerance than plants containing MON-HT2 which were in turn better than plants containing MON-HT8. […] Error was calculated using LSD (0.05).

F1 hybrid maize plants [2] = assay: efficacy field trial for 2,4-D tolerance; settings: scale 0 to 100, with CTP unless label says no CTP
Experimental: (§1) Separate trait efficacy field trials for quizalofop-P and 2,4-D were conducted at two locations cach with F1 hybrid transgenic plants produced by crossing an inbred plant containing maize event MON89034 with an R1 plant containing MON-HT55 (with a CTP), MON-HTI (with or without a CTP), MON-HT2 (with or without a CTP), MON-HT3 (with a CTP), MON-HT4 (with a CTP), MON-HT5 (with a CTP), MON-HT6 (with a CTP), or MON-HT7 (with a CTP). Transgenic F1 hybrid plants containing maize events NK603×MON89034 were used for comparison as a control.
In the efficacy field trial for 2,4-D tolerance, one of four herbicide treatments was used: (1) 2,4-D amine at 2 lb ac/acre (2×) plus 0.25% v/v non-ionic surfactant (NIS) applied to VE to V2 followed by V4 followed by V8; (2) 2,4-D amine at 4 lb ac/acre (4×) plus 0.25% v/v NIS applied to VE to V2 followed by V4 followed by V8; (3) 2,4-D amine at 8 lb ac/acre (8×) plus 0.25% v/v NIS applied to VE to V2 followed by V4 followed by V8 maize; or (4) 2,4-D amine at 16 lb ac/acre (16×) plus 0.25% v/v NIS applied to VE to V2 followed by V4 followed by V8. Plots were visually rated as above. Tables 14 and 15 show the average injury ratings after herbicide application at V4 or V8 growth stage, respectively.

F1 hybrid maize plants [3] = assay: efficacy field trial for quizalofop-P tolerance and clethodim sensitivity; settings: scale 0 to 100; clethodim 0.25 lb ai/acre at V8; volunteer control
Experimental: as §1
In the efficacy field trial for quizalofop-P tolerance and clethodim sensitivity, one of four herbicide treatments was used: (1) quizalofop-P (Assure II) at 0.32 lb ai/acre (4×) plus 0.25% v/v non-ionic surfactant (NIS) applied at VE-V2 growth stage followed by the same at V4 growth stage followed by the same at V8 growth stage; (2) quizalofop-P at 0.64 lb ai/acre (8×) plus 0.25% v/v NIS applied at VE to V2 growth stage followed by the same at V4 growth stage followed by the same at V8 growth stage; (3) quizalofop-P at 1.28 lb ai/acre (16×) plus 0.25% v/v NIS applied at VE to V2 growth stage followed by the same at V4 growth stage followed by the same at V8growth stage; or (4) clethodim at 0.25 lb ai/acre (1×) plus 0.25% v/v NIS applied at V8 growth stage. Plots were visually rated 10-14 days after application for crop injury on a scale of 0 to 100with “0” being none and “100” being complete crop destruction. Tables 14 and 15 show the average injury ratings after herbicide application at V4 or V8 growth stage, respectively.

B1: MON-HT9: engineered oxygenase protein, amino acid sequence SEQ ID NO:40 (protein)
chain: MHAALTPLTNKYRFIDVQPLTGVLGAEITGVDLREPLDDSTWNEILDAFHTYQVIYFPAQQITNEQHISFSRRFGPVDPVPLLKSIEGYPEVQMIRREANESGRILGDDWHTDSTFLDAPPAAVVMRAIEVPEYGGDTGFLSMYSAWDTLSDTMKATIEGLNVVHSATRVFGSLYQAQNWRFSNTSVKVMDVDAGDRETVHPLVVSHPVTGRRALYCNQVYCQRIEGMTDAESKCLLQFLYEHATKFDFTCRVRWKKDQVLVWDNLCTMHRAVPDYAGKFRYLTRTTVAGDRPAR
- 4X 2,4-D CIPV4 (F1 hybrid maize plants [1]; CTP A): 17.5
- 4X 2,4-D CIPV8 (F1 hybrid maize plants [1]; CTP A): 55
- 8X 2,4-D CIPV4 (F1 hybrid maize plants [1]; CTP A): 25
- 8X 2,4-D CIPV8 (F1 hybrid maize plants [1]; CTP A): 75
- 16X 2,4-D CIPV4 (F1 hybrid maize plants [1]; CTP A): 45
- 16X 2,4-D CIPV8 (F1 hybrid maize plants [1]; CTP A): 90

B2: MON-HT10: engineered oxygenase protein, amino acid sequence SEQ ID NO:43 (protein)
chain: MHAALTPLTNKYRFIDVQPLCGVLGAEITGVDLREPLDDSTWNEILDAFHTYQVIYFPGQAITNEQHIAFSRRFGPVDPVPLLKSIEGYPEVQMIRREANESGRILGDDWHTDSTFLDAPPAAVVMRAIEVPEYGGDTGFLSMYSAWDTLSDTMKATIEGLNVVHSATRVFGSLYQAQNWRFSNTSVKVMDVDAGDRETVHPLVVSHPVTGRRALYCNQVYCQRIEGMTDAESKCLLQFLYEHATKFDFTCRVRWKKDQVLVWDNLCTMHLAVPDYDGKFRYLTRTTVAGDKPSR
- 4X 2,4-D CIPV4 (F1 hybrid maize plants [1]; CTP A): 32.5
- 4X 2,4-D CIPV8 (F1 hybrid maize plants [1]; CTP A): 70
- 8X 2,4-D CIPV4 (F1 hybrid maize plants [1]; CTP A): 55
- 8X 2,4-D CIPV8 (F1 hybrid maize plants [1]; CTP A): 87.5
- 16X 2,4-D CIPV4 (F1 hybrid maize plants [1]; CTP A): 45
- 16X 2,4-D CIPV8 (F1 hybrid maize plants [1]; CTP A): 90

B3: MON-HT55: engineered oxygenase protein, amino acid sequence SEQ ID NO:11 (protein)
chain: MHAALSPLSQRFERIAVQPLTGVLGAEITGVDLREPLDDSTWNEILDAFHTYQVIYFPGQAITNEQHIAFSRRFGPVDPVPLLKSIEGYPEVQMIRREANESGRVIGENWHTDSTFLDAPPAAVVMYAKEIPPYGGDTLFTSMYTAWETLSPTMQATIEGLNVVHSATRVFGSLYQAQNRRFSNTSVKVMDVDAGDRETVHPLVVTHPETGRKGLYVNQVYCQRIEGMSEKESEPLLSFLFAHATKPEFTCRVRWQEGDVLVWDNLCTQHYAVPDYAGKFRYLTRTTVGGVRPAR
- average injury rating, V8 Growth Stage, 2x 2,4-D (F1 hybrid maize plants [2]; 2 lb ae/acre at VE-V2, V4, V8): 15.0 and 12.5 and 16.3 and 14.4 and 11.3
- average injury rating, V4 Growth Stage, 4x 2,4-D (F1 hybrid maize plants [2]; 4 lb ae/acre at VE-V2, V4, V8): 31.3 and 22.5 and 41.3 and 23.1 and 30.0
- average injury rating, V4 Growth Stage, 8x 2,4-D (F1 hybrid maize plants [2]; 8 lb ae/acre at VE-V2, V4, V8): 45.0 and 53.8 and 43.8 and 50.0 and 58.8 and 48.8
- average injury rating, V8 Growth Stage, 8x 2,4-D (F1 hybrid maize plants [2]; 8 lb ae/acre at VE-V2, V4, V8): 33.8 and 36.3 and 39.4 and 30.0 and 35.0
- average injury rating, V4 Growth Stage, 16x 2,4-D (F1 hybrid maize plants [2]; 16 lb ae/acre at VE-V2, V4, V8): 61.3 and 63.8 and 66.3 and 55.0 and 53.8 and 52.5
- average injury rating, V8 Growth Stage, 16x 2,4-D (F1 hybrid maize plants [2]; 16 lb ae/acre at VE-V2, V4, V8): 57.5 and 52.5 and 55.0 and 56.9 and 47.5
- average injury rating, V8 Growth Stage, 1x Clethodim (F1 hybrid maize plants [3]): 94.5 and 93.3

B4: MON-HT8: engineered oxygenase protein, amino acid sequence SEQ ID NO:37 (protein)
chain: MHAALTPLTNKYRFIDVQPLTGVLGAEITGVDLREPLDDSTWNEILDAFHTYQVIYFPGQAITNEQHIAFSRRFGPVDPVPILKSIEGYPEVQMIRREANESGRVIGDDWHTDSTFLDAPPAAVVMRAIEVPEYGGDTGFLSMYSAWETLSPTMQATIEGLNVVHSATKVFGSLYQATNWRFSNTSVKVMDVDAGDRETVHPLVVTHPVTGRRALYCNQVYCQKIQGMTDAESKSLLQFLYEHATKFDFTCRVRWKKDQVLVWDNLCTMHRSVPDYGNAFRYLTRTTVAGDKPSR
- 4X 2,4-D CIPV4 (F1 hybrid maize plants [1]; CTP A): 7.5
- 4X 2,4-D CIPV8 (F1 hybrid maize plants [1]; CTP A): 5
- 8X 2,4-D CIPV4 (F1 hybrid maize plants [1]; CTP A): 10
- 8X 2,4-D CIPV8 (F1 hybrid maize plants [1]; CTP A): 12.5
- 16X 2,4-D CIPV4 (F1 hybrid maize plants [1]; CTP A): 15
- 16X 2,4-D CIPV8 (F1 hybrid maize plants [1]; CTP A): 30
- 4X 2,4-D CIPV4 (F1 hybrid maize plants [1]; CTP B): 5
- 4X 2,4-D CIPV8 (F1 hybrid maize plants [1]; CTP B): 7.5
- 8X 2,4-D CIPV4 (F1 hybrid maize plants [1]; CTP B): 10
- 8X 2,4-D CIPV8 (F1 hybrid maize plants [1]; CTP B): 27.5
- 16X 2,4-D CIPV4 (F1 hybrid maize plants [1]; CTP B): 10
- 16X 2,4-D CIPV8 (F1 hybrid maize plants [1]; CTP B): 20
- 4X 2,4-D CIPV4 (F1 hybrid maize plants [1]; CTP C): 10
- 4X 2,4-D CIPV8 (F1 hybrid maize plants [1]; CTP C): 7.5
- 8X 2,4-D CIPV4 (F1 hybrid maize plants [1]; CTP C): 10
- 8X 2,4-D CIPV8 (F1 hybrid maize plants [1]; CTP C): 17.5
- 16X 2,4-D CIPV4 (F1 hybrid maize plants [1]; CTP C): 17.5
- 16X 2,4-D CIPV8 (F1 hybrid maize plants [1]; CTP C): 25

— patent US12723255B2, “Herbicide tolerance genes and methods of use thereof” (priority 2014, dated 2026)
